For this assay, the target named is T1, human adenosine A2A receptor (A2aR) (human, UniProt P29274 1-412).
T1 construct: Assays used HEK293 cells stably overexpressing human A2aR (BPS Bioscience 79381), human A2aR-expressing CHO cells, or endogenous A2aR on human PBMC; also called human A2aR; hA2aR
Put plainly: flow cytometry, HEK293-hA2aR cells, supernatant 1 ug/ml. (In general: A flow cytometer gives signals particle by particle.)

Substitutions are numbered along the chain they refer to. In names and notes the source's numbering stands.

T1 sequence (P29274 whole entry): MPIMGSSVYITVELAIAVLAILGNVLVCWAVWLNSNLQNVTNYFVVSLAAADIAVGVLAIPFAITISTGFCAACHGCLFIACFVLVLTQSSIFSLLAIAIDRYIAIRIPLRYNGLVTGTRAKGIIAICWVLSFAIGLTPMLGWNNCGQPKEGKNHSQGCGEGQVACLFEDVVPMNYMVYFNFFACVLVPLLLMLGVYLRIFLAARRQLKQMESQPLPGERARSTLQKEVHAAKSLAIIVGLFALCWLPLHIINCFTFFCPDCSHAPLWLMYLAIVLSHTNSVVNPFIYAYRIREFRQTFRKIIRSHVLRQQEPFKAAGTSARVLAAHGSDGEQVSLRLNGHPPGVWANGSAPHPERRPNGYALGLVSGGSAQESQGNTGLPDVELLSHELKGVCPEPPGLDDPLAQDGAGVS

B1: Hu3F6-H1/Hu3F6-L8 (antibody, human IgG1, V domains shown)
VH: QVQLVQSGAEVKKPGASVKVSCKASGFAFTSYWMNWVRQAPGQGLEWMGRIDPSDSEAHYHHKFWGRVTMTRDTSTSTVYMELSSLRSEDTAVYYCLRSLYGKGDYWGHGTTVTVSS
VL: DVVMTQSPLSLPVTPGEPASISCRSSQSLVHRNGNTYLEWYLQKPGQSPQLLIYKVSNRFSGVPDRFSGSGSGTDFTLKISRVEAEDVGVYYCYQGSHVPLTFGGGTKVEIK
notes: Human IgG1 FES (L234F, L235E, P331S) and human Ig kappa constant domains
For B1, the MFI was found to be 1420 MFI.

B2: Hu3F6-H2/Hu3F6-L1 (antibody, human IgG1, V domains shown)
VH: B1 VH with Q1E, A24T, R72V
VL: B1 VL with P15L, E17Q, Y41F, L42Q, K44R, Q50R, L51R
notes: as for B1
On to B2, for which the MFI is 13 MFI.

B3: Hu3F6-H4/Hu3F6-L3 (antibody, human IgG1, V domains shown)
VH: B1 VH with Q1E, A24T, M48I, V68A, M70L, R72V, T74K, T76S
VL: B1 VL with P15L, E17Q, L42Q, K44R, Q50R
notes: as for B1
As for B3, the MFI was 1960 MFI.

B4: Hu3F6-H4/Hu3F6-L6 (antibody, human IgG1, V domains shown)
VH: B1 VH with Q1E, A24T, M48I, V68A, M70L, R72V, T74K, T76S
VL: B1 VL with V2I, S7T, L9P, T14N, T74S, R82W
notes: as for B1
On to B4, for which the MFI came out at 1960 MFI.

B5: Hu3F6-H1/Hu3F6-L7 (antibody, human IgG1, V domains shown)
VH: B1 VH
VL: B1 VL with S7T, L9P, T14N, T74S, R82W
notes: as for B1
In turn, B5 registered an MFI of 290 MFI.

B6: Hu3F6-H1/Hu3F6-L2 (antibody, human IgG1, V domains shown)
VH: B1 VH
VL: B1 VL with P15L, E17Q, L42Q, K44R, Q50R, L51R
notes: as for B1
Turning to B6, the MFI turned out to be 14 MFI.

B7: Hu3F6-H4/Hu3F6-L4 (antibody, human IgG1, V domains shown)
VH: B1 VH with Q1E, A24T, M48I, V68A, M70L, R72V, T74K, T76S
VL: B1 VL with V2I, S7T, P12S, E17Q
notes: as for B1
In the case of B7, the MFI was determined as 1450 MFI.

B8: Hu3F6-H1/Hu3F6-L6 (antibody, human IgG1, V domains shown)
VH: B1 VH
VL: B1 VL with V2I, S7T, L9P, T14N, T74S, R82W
notes: as for B1
B8: the MFI worked out at 313 MFI.

B9: Hu3F6-H4/Hu3F6-L5 (antibody, human IgG1, V domains shown)
VH: B1 VH with Q1E, A24T, M48I, V68A, M70L, R72V, T74K, T76S
VL: B1 VL with S7T, P12S, E17Q
notes: as for B1
Consider B9, for which the MFI turned out to be 1990 MFI.

B10: Hu3F6-H2/Hu3F6-L7 (antibody, human IgG1, V domains shown)
VH: B1 VH with Q1E, A24T, R72V
VL: B1 VL with S7T, L9P, T14N, T74S, R82W
notes: as for B1
B10 showed an MFI of 1180 MFI.

B11: Hu3F6-H2/Hu3F6-L6 (antibody, human IgG1, V domains shown)
VH: B1 VH with Q1E, A24T, R72V
VL: B1 VL with V2I, S7T, L9P, T14N, T74S, R82W
notes: as for B1
For B11, the MFI was found to be 1580 MFI.

B12: Hu3F6-H1/Hu3F6-L3 (antibody, human IgG1, V domains shown)
VH: B1 VH
VL: B1 VL with P15L, E17Q, L42Q, K44R, Q50R
notes: as for B1
In turn, B12 had an MFI of 1600 MFI.

B13: Hu3F6-H4/Hu3F6-L2 (antibody, human IgG1, V domains shown)
VH: B1 VH with Q1E, A24T, M48I, V68A, M70L, R72V, T74K, T76S
VL: B1 VL with P15L, E17Q, L42Q, K44R, Q50R, L51R
notes: as for B1
Consider B13, for which the MFI was 255 MFI.

B14: Hu3F6-H1/Hu3F6-L1 (antibody, human IgG1, V domains shown)
VH: B1 VH
VL: B1 VL with P15L, E17Q, Y41F, L42Q, K44R, Q50R, L51R
notes: as for B1
Consider B14, for which the MFI amounted to 15 MFI.

B15: Hu3F6-H1/Hu3F6-L5 (antibody, human IgG1, V domains shown)
VH: B1 VH
VL: B1 VL with S7T, P12S, E17Q
notes: as for B1
On to B15, for which the MFI came out at 1500 MFI.

B16: Hu3F6-H5/Hu3F6-L6 (antibody, human IgG1, V domains shown)
VH: B1 VH with Q1E, A24T, M48I, H61A, V68A, M70L, R72V, T74K, T76S
VL: B1 VL with V2I, S7T, L9P, T14N, T74S, R82W
notes: as for B1
In turn, B16 gave an MFI of 1840 MFI.

B17: Hu3F6-H4/Hu3F6-L7 (antibody, human IgG1, V domains shown)
VH: B1 VH with Q1E, A24T, M48I, V68A, M70L, R72V, T74K, T76S
VL: B1 VL with S7T, L9P, T14N, T74S, R82W
notes: as for B1
Consider B17, for which the MFI stood at 1880 MFI.

B18: Hu3F6-H1/Hu3F6-L4 (antibody, human IgG1, V domains shown)
VH: B1 VH
VL: B1 VL with V2I, S7T, P12S, E17Q
notes: as for B1
Turning to B18, the MFI stood at 1320 MFI.

B19: Hu3F6-H3/Hu3F6-L6 (antibody, human IgG1, V domains shown)
VH: B1 VH with Q1E, A24T, M48I, V68A, M70L, R72V, T76S
VL: B1 VL with V2I, S7T, L9P, T14N, T74S, R82W
notes: as for B1
B19 displayed an MFI of 1660 MFI.

B20: Hu3F6-H3/Hu3F6-L7 (antibody, human IgG1, V domains shown)
VH: B1 VH with Q1E, A24T, M48I, V68A, M70L, R72V, T76S
VL: B1 VL with S7T, L9P, T14N, T74S, R82W
notes: as for B1
B20: the MFI came to 1510 MFI.

B21: Hu3F6-H6/Hu3F6-L8 (antibody, human IgG1, V domains shown)
VH: EVQLVQSGAEVKKPGESLRISCKASGFAFTSYWMNWVRQMPGKGLEWIGRIDPSDSEAHYHHKFWGHATLSVDKSSSTVYLQWSSLKASDTAMYYCLRSLYGKGDYWGHGTTVTVSS
VL: B1 VL
notes: as for B1
As to B21, the MFI is 2000 MFI.

B22: Hu3F6-H6/Hu3F6-L3 (antibody, human IgG1, V domains shown)
VH: B21 VH
VL: B1 VL with P15L, E17Q, L42Q, K44R, Q50R
notes: as for B1
In the case of B22, the MFI stood at 2090 MFI.

B23: Hu3F6-H6/Hu3F6-L6 (antibody, human IgG1, V domains shown)
VH: B21 VH
VL: B1 VL with V2I, S7T, L9P, T14N, T74S, R82W
notes: as for B1
Molecule B23 returned an MFI of 979 MFI.

B24: Hu3F6-H6/Hu3F6-L1 (antibody, human IgG1, V domains shown)
VH: B21 VH
VL: B1 VL with P15L, E17Q, Y41F, L42Q, K44R, Q50R, L51R
notes: as for B1
In turn, B24 displayed an MFI of 27 MFI.

B25: Hu3F6-H4/Hu3F6-L8 (antibody, human IgG1, V domains shown)
VH: B1 VH with Q1E, A24T, M48I, V68A, M70L, R72V, T74K, T76S
VL: B1 VL
notes: as for B1
Take B25: the MFI amounted to 1710 MFI.

B26: Hu3F6-H6/Hu3F6-L4 (antibody, human IgG1, V domains shown)
VH: B21 VH
VL: B1 VL with V2I, S7T, P12S, E17Q
notes: as for B1
As to B26, the MFI worked out at 2000 MFI.

B27: Hu3F6-H6/Hu3F6-L2 (antibody, human IgG1, V domains shown)
VH: B21 VH
VL: B1 VL with P15L, E17Q, L42Q, K44R, Q50R, L51R
notes: as for B1
With B27, the MFI was 17 MFI.

B28: Hu3F6-H6/Hu3F6-L5 (antibody, human IgG1, V domains shown)
VH: B21 VH
VL: B1 VL with S7T, P12S, E17Q
notes: as for B1
Take B28: the MFI stood at 1980 MFI.

B29: Hu3F6-H6/Hu3F6-L7 (antibody, human IgG1, V domains shown)
VH: B21 VH
VL: B1 VL with S7T, L9P, T14N, T74S, R82W
notes: as for B1
The molecule B29 returned an MFI of 1170 MFI.
